From patent EP4803139A2 come the findings set out here.

Assay [1] has as its target human PCSK9 (proprotein convertase subtilisin/kexin type 9), wild type (human) (UniProt Q8NBP7). The experiment in a line: BIAcore SPR, human PCSK9, pH 6.0.
Assay [2] has the same target. The experiment in a line: BIAcore SPR, human PCSK9, pH 7.4. (In SPR one partner is held on a chip, and binding of the other changes the refractive index at the surface.)
Assay [3] shares this target. The experiment in a line: BIAcore SPR, antibody amine-coupled to CM5, PCSK9 as analyte, pH 7.4.
Assay [4] has the same target. The experiment in a line: BIAcore solution equilibrium assay, 21B12 immobilised on CM5, one-site fit in KinExA Pro.
For assay [5] the target is unchanged. The experiment in a line: KinExA solution equilibrium, PCSK9-coated beads. On the technique in general: A kinetic exclusion assay measures how much of one partner remains free in solution.

B1: 21B12, anti-PCSK9 huIgG4 (antibody, V domains shown)
VH: QVQLVQSGAEVKKPGASVKVSCKASGYTLTSYGISWVRQAPGQGLEWMGWVSFYNGNTNYAQKLQGRGTMTTDPSTSTAYMELRSLRSDDTAVYYCARGYGMDVWGQGTTVTVSS
VL: QSALTQPASVSGSPGQSITISCTGTSSDVGGYNSVSWYQQHPGKAPKLMIYEVSNRPSGVSNRFSGSKSGNTASLTISGLQAEDEADYYCNSYTSTSMVFGGGTKLTVLQ
In the case of B1, the Kd in assay [1] came out at 0.0073 nM; in assay [2], 0.19 nM; in assay [3], 0.19 nM; in assay [4], 0.015 nM. For the same molecule, the off-rate constant (koff) stood at 1.68e-05 s⁻¹ in assay [1] and 6.63e-06 s⁻¹ in assay [2]. For the same molecule, the kon in assay [1] stood at 2.29e+06 M⁻¹ s⁻¹; in assay [2] it was 34900 M⁻¹ s⁻¹.

B2: 16F12, anti-PCSK9 huIgG4 (antibody, V domains shown)
VH: QVHLVESGGGVVQPGRSLRLSCAASGFTFNSFGMHWVRQAPGKGLEWVALIWSDGSDEYYADSVKGRFTISRDNSKNTLYLQMNSLRAEDTAVYYCARAIAALYYYYGMDVWGQGTTVTVSS
VL: QSVLTQPPSVSAAPGQKVTISCSGSSSNIGNNFVSWYQQLPGTAPKLLIYDYNKRPSGIPDRFSGSKSGTSATLGITGLQTGDEADYYCGTWDSSLSAYVFGTGTRVTVLQ
Consider B2, for which the Kd in assay [1] amounted to 0.029 nM; in assay [2], 0.47 nM; in assay [5], 0.015 nM; in assay [3], 0.47 nM. The koff in assay [1] amounted to 7.01e-05 s⁻¹; in assay [2] it was 4.98e-05 s⁻¹. The figures for the kon in assay [1] and in assay [2] were 2.39e+06 M⁻¹ s⁻¹ and 106000 M⁻¹ s⁻¹, respectively.

By Kd is commonly meant the free concentration of one partner at which half of the binding sites on the other are occupied at equilibrium, for simple one-to-one binding. As usually defined, the koff is a measure of how fast the partners let go of each other. A higher koff goes with fast dissociation. Broadly, the kon is a measure of how fast the partners come together. A low value points to slow association.
